In US12007398:

Columns and labels:
[1] = target: T1, CD3e subunit of the T cell receptor on human T cells (human, UniProt P07766 23-207); assay: cell-based or functional assay
[2] = target: T1, CD3e subunit of the T cell receptor on …; assay: cell-based or functional assay; remark: listed apart in the source

T1 sequence (P07766 23-207): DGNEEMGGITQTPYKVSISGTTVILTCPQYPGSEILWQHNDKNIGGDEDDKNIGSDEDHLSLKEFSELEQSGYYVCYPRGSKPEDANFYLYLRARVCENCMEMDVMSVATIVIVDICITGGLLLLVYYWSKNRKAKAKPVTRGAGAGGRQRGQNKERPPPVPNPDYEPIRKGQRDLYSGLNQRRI

| Binder | EC50 of NFκB-luciferase reporter activation, Jurkat/NFκBLuc cells; in absence of target cells [1] [µg/mL] | EC50 of T cell activation (CD69+/CD25+), human PBMC Donor 1; column head: in absence of target cells [1] [µg/mL] | EC50 of T cell activation (CD69+/CD25+), human PBMC Donor 2; column head: in absence of target cells [1] [µg/mL] | EC50 of NFκB-luciferase reporter activation, Jurkat/NFκBLuc cells; in presence of target cells [1] [µg/mL] | EC50 of T cell activation (CD69+/CD25+), human PBMC Donor 1; in presence of target cells [1] [µg/mL] | EC50 of T cell activation (CD69+/CD25+), human PBMC Donor 2; in presence of target cells [1] [µg/mL] | luciferase activity of Jurkat/NFκBLuciferase clone 2 in the presence of a CD20 expressing target cell line, relative to anti-CD3 homodimer [2] [fold] |
| --- | --- | --- | --- | --- | --- | --- | --- |
| purified anti-CD3 homodimer (product-related impurity isolated from the αCD20/αCD3 TDB purification process) (antibody, V domains shown) VH: EVQLVQSGAEVKKPGASVKVSCKASGYTFTNYYIHWVRQAPGQGLEWIGWIYPGDGNTKYNEKFKGRATLTADTSTSTAYLELSSLRSEDTAVYYCARDSYSNYYFDYWGQGTLVTVSS VL: DIVMTQSPDSLAVSLGERATINCKSSQSLLNSRTRKNYLAWYQQKPGQPPKLLIYWASTRESGVPDRFSGSGSGTDFTLTISSLQAEDVAVYYCTQSFILRTFGQGTKVEIK | 0.21 | 0.526 | 0.169 |  |  |  |  |
| αCD20/αCD3 TDB (T cell dependent bispecific antibody; anti-CD20 Mab2 / anti-CD3 Mab1) (bispecific antibody, V domains shown) VH 1: EVQLVESGGGLVQPGGSLRLSCAASGYTFTSYNMHWVRQAPGKGLEWVGAIYPGNGDTSYNQKFKGRFTISVDKSKNTLYLQMNSLRAEDTAVYYCARVVYYSNSYWYFDVWGQGTLVTVSS VL 1: DIQMTQSPSSLSASVGDRVTITCRASSSVSYMHWYQQKPGKAPKPLIYAPSNLASGVPSRFSGSGSGTDFTLTISSLQPEDFATYYCQQWSFNPPTFGQGTKVEIKR VH 2: EVQLVQSGAEVKKPGASVKVSCKASGYTFTNYYIHWVRQAPGQGLEWIGWIYPGDGNTKYNEKFKGRATLTADTSTSTAYLELSSLRSEDTAVYYCARDSYSNYYFDYWGQGTLVTVSS VL 2: DIVMTQSPDSLAVSLGERATINCKSSQSLLNSRTRKNYLAWYQQKPGQPPKLLIYWASTRESGVPDRFSGSGSGTDFTLTISSLQAEDVAVYYCTQSFILRTFGQGTKVEIK |  |  |  | 0.0013 | 0.0055 | 0.0044 | 1000 |
